Measured values reported in patent US20050079516A1, “Chromosome stability assay” (The Board of Trustees of the University of Illinois, priority 2003, published 2005).

B1: proteinase K: protease proteinase K, chromatin modifying agent (protein, UniProt P06873 106-384, looked up)
Proteinase K: AAQTNAPWGLARISSTSPGTSTYYYDESAGQGSCVYVIDTGIEASHPEFEGRAQMVKTYYYSSRDGNGHGTHCAGTVGSRTYGVAKKTQLFGVKVLDDNGSGQYSTIIAGMDFVASDKNNRNCPKGVVASLSLGGGYSSSVNSAAARLQSSGVMVAVAAGNNNADARNYSPASEPSVCTVGASDRYDRRSSFSNYGSVLDIFGPGTSILSTWIGGSTRSISGTSMATPHVAGLAAYLMTLGKTTAASACRYIADTANKGDLSNIPFGTVNLLAYNNYQA
B2: RNase A: nuclease (protein, UniProt P61823 27-150, looked up)
Ribonuclease pancreatic: KETAAAKFERQHMDSSTSAASSSNYCNQMMKSRNLTKDRCKPVNTFVHESLADVQAVCSQKNVACKNGQTNCYQSYSTMSITDCRETGSSKYPNCAYKTTQANKHIIVACEGNPYVPVHFDASV

Tests used:
[1] = test system: chromatin strands from invasive HT1080 fibrosarcoma cells; experiment: proteinase K treatment of isolated chromatin strands; type: biochemical, human; conditions: proteinase K 5 mg/ml, 5 minutes
Procedure: (§1) FIGS. 2D and 2E illustrate the effects of treatment of chromatin strands from normal human microvascular endothelial cells and invasive HT1080 fibrosarcoma cells with proteinase K under the conditions described above except that proteinase K (5 mg/ml) was substituted for ALU and the incubation time was reduced from 60 minutes to 5 minutes.

[2] = test system: chromatin strands from normal human microvascular endothelial cells; experiment: as above; type: biochemical; conditions: normal endothelial cell chromatin; proteinase K 5 mg/ml, 5 minutes
Procedure: as §1

[3] = test system: chromatin strands; experiment: degradation of chromatin strands with other endonucleases; type: biochemical; conditions: isolated chromatin strands

Row | Molecule | chromatin dispersion (FIGS. 2D, 2E) [1] | chromatin dispersion (FIGS. 2D, 2E) [2] | correlation of chromatin cleavage pattern with invasive potential of the cell [3]
1 | B1 | extensively dispersed | remained largely intact | 
2 | B2 |  |  | does not exhibit chromatin cleavage patterns that correlate with the invasive potential
